Changes are numbered by the printed parent chain. Numbers in names are those of the source. Read-outs that look alike come from different tables or passages of the source.
Tests used:
Assay in all cases: SPR, Biacore T200; Ab captured on Human Fab Binder, complex injected; pH 7.4, 25 C
[1] = target: T1, mouse ANGPTL3/8 complex (mouse, UniProt Q9R182 17-455; Q8R1L8 16-198, limits assumed)
T1 sequence (looked up) 1: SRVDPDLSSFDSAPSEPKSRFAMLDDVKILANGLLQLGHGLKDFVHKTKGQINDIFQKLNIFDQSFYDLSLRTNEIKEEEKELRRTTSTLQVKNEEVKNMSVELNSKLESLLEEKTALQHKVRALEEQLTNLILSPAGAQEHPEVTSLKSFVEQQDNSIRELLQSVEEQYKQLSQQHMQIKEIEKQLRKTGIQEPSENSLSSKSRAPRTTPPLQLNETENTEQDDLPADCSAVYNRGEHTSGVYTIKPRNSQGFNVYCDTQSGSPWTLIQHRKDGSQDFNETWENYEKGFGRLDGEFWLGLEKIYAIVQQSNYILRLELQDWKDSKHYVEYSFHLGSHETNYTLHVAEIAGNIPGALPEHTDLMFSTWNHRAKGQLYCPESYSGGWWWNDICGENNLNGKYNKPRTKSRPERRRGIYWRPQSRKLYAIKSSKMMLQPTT
T1 sequence (looked up) 2: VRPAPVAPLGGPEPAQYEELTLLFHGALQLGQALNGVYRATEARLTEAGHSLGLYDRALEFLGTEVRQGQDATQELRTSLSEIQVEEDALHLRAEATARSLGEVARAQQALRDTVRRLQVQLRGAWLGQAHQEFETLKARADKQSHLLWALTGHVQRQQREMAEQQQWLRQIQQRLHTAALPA

[2] = target: T2, cynomolgus ANGPTL3/8 complex (cynomolgus, UniProt A0A2K5UDC5 17-460; A0A2K5WWS3 22-198)
T2 construct: also called cyno ANGPTL3/8
T2 sequence 1: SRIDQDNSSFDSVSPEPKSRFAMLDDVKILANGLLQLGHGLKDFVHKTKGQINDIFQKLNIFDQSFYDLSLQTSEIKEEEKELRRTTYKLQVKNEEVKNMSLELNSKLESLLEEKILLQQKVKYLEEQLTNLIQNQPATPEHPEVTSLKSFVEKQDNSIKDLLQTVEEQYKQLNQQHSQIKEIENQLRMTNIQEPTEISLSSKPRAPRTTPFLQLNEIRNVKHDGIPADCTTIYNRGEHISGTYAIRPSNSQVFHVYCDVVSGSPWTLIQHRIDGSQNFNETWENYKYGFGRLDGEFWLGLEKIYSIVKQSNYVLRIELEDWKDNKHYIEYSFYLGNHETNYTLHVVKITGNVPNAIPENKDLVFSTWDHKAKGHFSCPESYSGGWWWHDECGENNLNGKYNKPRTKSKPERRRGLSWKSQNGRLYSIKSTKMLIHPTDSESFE
T2 sequence 2: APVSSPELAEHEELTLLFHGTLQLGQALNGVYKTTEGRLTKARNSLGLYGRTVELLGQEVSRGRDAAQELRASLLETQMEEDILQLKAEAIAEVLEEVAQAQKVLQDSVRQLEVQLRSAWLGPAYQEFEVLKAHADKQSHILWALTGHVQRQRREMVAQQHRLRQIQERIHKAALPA

[3] = target: T3, human ANGPTL3/8 complex (human, UniProt Q9Y5C1 17-460; Q6UXH0 22-198, limits assumed)
T3 construct: also called hANGPTL3/8 complex; ANGTPL3/8 complex
T3 sequence 1: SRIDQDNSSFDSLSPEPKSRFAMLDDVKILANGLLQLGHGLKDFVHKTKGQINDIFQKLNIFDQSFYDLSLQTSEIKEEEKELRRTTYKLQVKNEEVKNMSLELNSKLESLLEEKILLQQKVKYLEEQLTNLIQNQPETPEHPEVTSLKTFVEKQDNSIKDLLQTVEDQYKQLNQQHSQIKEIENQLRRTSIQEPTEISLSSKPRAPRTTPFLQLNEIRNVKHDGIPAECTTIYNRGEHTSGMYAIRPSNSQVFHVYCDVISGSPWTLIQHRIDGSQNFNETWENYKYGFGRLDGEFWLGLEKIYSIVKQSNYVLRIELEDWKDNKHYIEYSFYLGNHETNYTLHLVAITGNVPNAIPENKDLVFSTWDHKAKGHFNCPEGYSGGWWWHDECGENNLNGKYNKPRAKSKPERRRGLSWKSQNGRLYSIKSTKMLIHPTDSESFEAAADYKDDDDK
T3 sequence 2: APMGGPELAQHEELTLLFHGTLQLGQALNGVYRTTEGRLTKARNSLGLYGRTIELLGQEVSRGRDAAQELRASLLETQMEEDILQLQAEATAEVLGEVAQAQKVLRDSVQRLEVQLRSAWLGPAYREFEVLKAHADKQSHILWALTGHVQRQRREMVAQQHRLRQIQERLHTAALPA

[4] = target: T1, mouse ANGPTL3/8 complex; remark: listed apart in the source
[5] = target: T2, cynomolgus ANGPTL3/8 complex; remark: listed apart in the source
[6] = target: T1, mouse ANGPTL3/8 complex; remark: listed apart in the source
[7] = target: T2, cynomolgus ANGPTL3/8 complex; remark: listed apart in the source
[8] = target: T3, human ANGPTL3/8 complex; remark: listed apart in the source

B1: anti-ANGPTL3/8 complex Ab having a LC of SEQ ID NO:5 and a HC of SEQ ID NO:6 (antibody, human IgG4 S228P, kappa, F234A L235A, V domains shown)
VH: QVTLKESGPTLVKPTQTLTLTCTFSGFSLSISGVGVGWIRQPPGKALEWLALIYRNDDKRYSPSLKSRLTITKDTSKNQVVLTLTNMDPVDTATYYCARTYSSGWYGNWFDPWGQGTLVTVSS
VL: DIVMTQTPLSLPVTPGEPASISCRSSQSLLDSDDGNTYLDWYLQKPGQSPQLLIYMLSYRASGVPDRFSGSGSGTDFTLKISRVEAEDVGIYYCMQRIEFPLTFGGGTKVEIKR
notes: In the ELISA assays tested as IgG from CHO supernatants; also called the Ab
B1 showed a Kd [1] of 366 pM, a koff [1] of 0.000172 s⁻¹ and a kon [1] of 475000 M⁻¹ s⁻¹. The Kd [2] was 213 pM, the koff [2] was 9.91e-05 s⁻¹ and the kon [2] was 491000 M⁻¹ s⁻¹. The Kd [3] was 135 pM, the koff [3] was 6.31e-05 s⁻¹ and the kon [3] was 477000 M⁻¹ s⁻¹.

B2: Ab with LC variant having a E99Q mutation (SEQ ID NO:25) and a HC of SEQ ID NO:6 (antibody, human IgG4 S228P, kappa, F234A L235A, V domains shown)
VH: B1 VH
VL: B1 VL with E99Q
notes: also called E99Q Variant Ab; E99Q Ab
B2 showed a Kd [4] of 254 pM, a koff [4] of 0.000151 s⁻¹ and a kon [4] of 596000 M⁻¹ s⁻¹. The Kd [5] was 116 pM, the koff [5] was 7.23e-05 s⁻¹ and the kon [5] was 620000 M⁻¹ s⁻¹.

B3: Ab with LC variant having a D31S mutation (SEQ ID NO:21) and a HC of SEQ ID NO:6 (antibody, human IgG4 S228P, kappa, F234A L235A, V domains shown)
VH: B1 VH
VL: B1 VL with D31S
notes: also called D31S Variant Ab; D31S Ab
Work on B3 yielded a Kd [6] of 218 pM, a koff [6] of 0.000108 s⁻¹ and a kon [6] of 496000 M⁻¹ s⁻¹. For the same binder, the Kd [7] was 365 pM, the koff [7] was 0.000168 s⁻¹ and the kon [7] was 462000 M⁻¹ s⁻¹. For the same binder, the Kd [8] was 116 pM, the koff [8] was 5.75e-05 s⁻¹ and the kon [8] was 497000 M⁻¹ s⁻¹.

From patent US20200199213A1 (Eli Lilly, published 2020)
